Results reported in FireProtDB (doi:10.1021/bi00174a031).

B1: Phosphoglycerate kinase, P00560 (parent)
chain: MSLSSKLSVQDLDLKDKRVFIRVDFNVPLDGKKITSNQRIVAALPTIKYVLEHHPRYVVLASHLGRPNGERNEKYSLAPVAKELQSLLGKDVTFLNDCVGPEVEAAVKASAPGSVILLENLRYHIEEEGSRKVDGQKVKASKEDVQKFRHELSSLADVYINDAFGTAHRAHSSMVGFDLPQRAAGFLLEKELKYFGKALENPTRPFLAILGGAKVADKIQLIDNLLDKVDSIIIGGGMAFTFKKVLENTEIGDSIFDKAGAEIVPKLMEKAKAKGVEVVLPVDFIIADAFSADANTKTVTDKEGIPAGWQGLDNGPESRKLFAATVAKAKTIVWNGPPGVFEFEKFAAGTKALLDEVVKSSAAGNTVIIGGGDTATVAKKYGVTDKISHVSTGGGASLELLEGKELPGVAFLSEKK

Variants of: B1
Details: Saccharomyces cerevisiae (strain ATCC 204508 / S288c), pH 7.5, 25 °C, GdnHCl, Sodium phosphate 20 mM, structure 3PGK, whole UniProt chain shown

## W334F
CD
  ddG of mutation (higher = less stable): 16.4 kJ/mol
  denaturant m value: 8.4 kcal/mol/M
  denaturant midpoint (higher = more stable): 0.63 M
  unfolding free energy: 22.5 kJ/mol

## W309F W334F
CD
  ddG of mutation (higher = less stable): 26.5 kJ/mol
  denaturant m value: 6.1 kcal/mol/M
  denaturant midpoint (higher = more stable): 0.48 M
  unfolding free energy: 12.5 kJ/mol
Fluorescence
  ddG of mutation (higher = less stable): 36.5 kJ/mol
  denaturant m value: 5.9 kcal/mol/M
  denaturant midpoint (higher = more stable): 0.49 M
  unfolding free energy: 12.7 kJ/mol

## W309F
CD
  ddG of mutation (higher = less stable): 15.2 kJ/mol
  denaturant m value: 8.4 kcal/mol/M
  denaturant midpoint (higher = more stable): 0.67 M
  unfolding free energy: 23.8 kJ/mol
Fluorescence
  ddG of mutation (higher = less stable): 15.5 kJ/mol
  denaturant m value: 12.8 kcal/mol/M
  denaturant midpoint (higher = more stable): 0.63 M
  unfolding free energy: 33.6 kJ/mol
